Consider 94 variants from the supplement of paper PMC10567573.

B1: SOAT1 (parent)
chain: VYYIFERLCAPLFRNIKQEPFSAR
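Note: lentivirally expressed fusions sorted by FACS into six bins by GFP to DsRed ratio, PSI derived from sequencing read proportions per bin multiplied by bin number.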

Variants of B1 are the subject of this data set. Put plainly: protein stability index of a GFP-peptide fusion (GPS, HEK-293T) (PSI 1-6); higher = more stable. To be noted: c terminus: a fixed tail appended.
Take VYYIFERLCAPLFRNIKQWPFSAR [E19W]: the protein stability index stood at 2.4. For VYYIFERLCAPLFRNIKQTPFSAR [E19T], the protein stability index turned out to be 2.27. With VYYIFERLCAPLFRNIKQHPFSAR [E19H] the figure was 1.93; with VYYIFERLCAPLFRNIKQQPFSAR [E19Q], 3.17. As for VYYIFERLCAPLFRNIKQFPFSAR [E19F], the figure is 1.58; as for VYYIFERLCAPLFRNIKQYPFSAR [E19Y], 2.41.

Turning to VYYIFERLCAPLFRNIKQMPFSAR [E19M], the protein stability index was determined as 1.88. As for VYYIFERLCAPLFRNIKQPPFSAR [E19P], the figure is 2.76. With VYYIFERLCAPLFRNIKQNPFSAR [E19N] the figure was 1.47; with VYYIFERLCAPLFRNIKQAPFSAR [E19A], 2.12.

For the variant VYYIFERLCAPLFRNIKQGPFSAR [E19G], the protein stability index was 2.86. With VYYIFERLCAPLFRNIKQDPFSAR [E19D] the figure was 2.08.

For the variant VYYIFERLCAPLFRNIKQCPFSAR [E19C], the protein stability index stood at 3.4. As for VYYIFERLCAPLFRNIKQIPFSAR [E19I], the figure is 2.6; as for VYYIFERLCAPLFRNIKQKPFSAR [E19K], 2.4; as for VYYIFERLCAPLFRNIKQLPFSAR [E19L], 1.52. For the variant VYYIFERLCAPLFINIKQEPFSAR [R14I], the protein stability index stood at 2.04. With VYYIFERLCAPLFENIKQEPFSAR [R14E] the figure was 1.5; with VYYIFERLCAPLFDNIKQEPFSAR [R14D], 3.52. With VYYIFERLCAPLFYNIKQEPFSAR [R14Y] the figure was 1.87; with VYYIFERLCAPLFNNIKQEPFSAR [R14N], 2.44. Turning to VYYIFERLCAPLFFNIKQEPFSAR [R14F], the protein stability index stood at 2.56. On to VYYIFERLCAPLFKNIKQEPFSAR [R14K], for which the protein stability index was determined as 2.46. With VYYIFERLCAPLFCNIKQEPFSAR [R14C], the protein stability index was determined as 2.71. With VYYIFERLCAPLFANIKQEPFSAR [R14A] the figure was 3.64; with VYYIFERLCAPLFTNIKQEPFSAR [R14T], 3.18. As for VYYIFERLCAPLFPNIKQEPFSAR [R14P], the figure is 2.33.

As to VYYIFERLCAPLFQNIKQEPFSAR [R14Q], the protein stability index was 3.82. With VYYIFERECAPLFRNIKQEPFSAR [L8E] the figure was 3.97; with VYYIFERPCAPLFRNIKQEPFSAR [L8P], 2.29. With VYYIFERDCAPLFRNIKQEPFSAR [L8D] the figure was 3.16. With VYYIFERTCAPLFRNIKQEPFSAR [L8T] the figure was 2; with VYYIFERCCAPLFRNIKQEPFSAR [L8C], 1.64. Turning to VYYIFERRCAPLFRNIKQEPFSAR [L8R], the protein stability index was 2.86. Turning to VYYIFERICAPLFRNIKQEPFSAR [L8I], the protein stability index stood at 1.62. As for VYYIFERKCAPLFRNIKQEPFSAR [L8K], the figure is 3.25. With VYYIFERLCAPLFRNIKMEPFSAR [Q18M] the figure was 2.92; with VYYIFERLCAPLFRNIKWEPFSAR [Q18W], 2.6; with VYYIFERLCAPLFRNIKFEPFSAR [Q18F], 1.28. As for VYYIFERLCAPLFRNIKGEPFSAR [Q18G], the figure is 2.28; as for VYYIFERLCAPLFRNIKPEPFSAR [Q18P], 2.92. For the variant VYYIFERLCAPLFRNIKTEPFSAR [Q18T], the protein stability index turned out to be 1.91. With VYYIFERLCAPLFRNIKREPFSAR [Q18R] the figure was 2.62.

On to VYYIFERLCAPLFRNIKHEPFSAR [Q18H], for which the protein stability index came out at 3.42. As for VYYIFERLCAPLFRNIKKEPFSAR [Q18K], the figure is 1.37; as for VYYIFERLCAPLFRNIKNEPFSAR [Q18N], 1.52; as for VYYIFERLCAPLFRNIKVEPFSAR [Q18V], 1.88. On to VYYIFERLCAPLFRNIKDEPFSAR [Q18D], for which the protein stability index came out at 2.9. As for VYYIFERLCAPLFRNIKCEPFSAR [Q18C], the figure is 2.19; as for VYYIFERLCAPLFRNIKYEPFSAR [Q18Y], 3.88. As for VYYIFERLCAPLFRNKKQEPFSAR [I16K], the figure is 2.45.

For VYYIFERLCAPLFRNGKQEPFSAR [I16G], the protein stability index was found to be 2.33. On to VYYIFERLCAPLFRNLKQEPFSAR [I16L], for which the protein stability index came out at 2.61.

Turning to VYYIFERLCAPLFRNCKQEPFSAR [I16C], the protein stability index was 2.46. As for VYYIFERLCAPLFRNMKQEPFSAR [I16M], the figure is 1.75; as for VYYIFERLCAPLFRNWKQEPFSAR [I16W], 3.96.

VYYIFERLCAPLFRNYKQEPFSAR [I16Y]: the protein stability index was found to be 2.17. VYYIFERLCAPLFRNDKQEPFSAR [I16D]: the protein stability index is 3.95. With VYYIFERLCAPLFRNTKQEPFSAR [I16T] the figure was 1.58; with VYYIFERLCAPLFRNAKQEPFSAR [I16A], 1.91. Turning to VYYIFETLCAPLFRNIKQEPFSAR [R7T], the protein stability index was 1.74. On to VYYIFEYLCAPLFRNIKQEPFSAR [R7Y], for which the protein stability index worked out at 2.98.

As to VYYIFESLCAPLFRNIKQEPFSAR [R7S], the protein stability index was determined as 4.56. As for VYYIFEWLCAPLFRNIKQEPFSAR [R7W], the figure is 3.93. Turning to VYYIFERLCAPLFREIKQEPFSAR [N15E], the protein stability index was 3.52. Consider VYYIFERLCAPLFRMIKQEPFSAR [N15M], for which the protein stability index came to 2.01. With VYYIFERLCAPLFRRIKQEPFSAR [N15R] the figure was 2; with VYYIFERLCAPLFRCIKQEPFSAR [N15C], 2.61. With VYYIFERLCAPLFRFIKQEPFSAR [N15F] the figure was 1.67; with VYYIFERLCAPLFRKIKQEPFSAR [N15K], 2.84. With VYYIFERLCAPLFRIIKQEPFSAR [N15I] the figure was 2.5. With VYYIFERLCAPLFRLIKQEPFSAR [N15L], the protein stability index stood at 2.75. With VYYIFERLCAPLFRVIKQEPFSAR [N15V] the figure was 1.82; with VYYIFERLCAPLFRHIKQEPFSAR [N15H], 2.86; with VYYIFERLCAPLFRTIKQEPFSAR [N15T], 3.46.

For the variant VYYIFERLCAPLFRYIKQEPFSAR [N15Y], the protein stability index was determined as 1.85. With VYYIFERLCAPLFRGIKQEPFSAR [N15G] the figure was 1.65. With VYYIFERLCAPLFRWIKQEPFSAR [N15W] the figure was 2.15; with VYYIFERLCAPLFRAIKQEPFSAR [N15A], 2.28.

VYYIFERLTAPLFRNIKQEPFSAR [C9T]: the protein stability index worked out at 2.26. As for VYYIFERLWAPLFRNIKQEPFSAR [C9W], the figure is 4.32; as for VYYIFERLLAPLFRNIKQEPFSAR [C9L], 1.67; as for VYYIFERLRAPLFRNIKQEPFSAR [C9R], 3.16. With VYYIFERLSAPLFRNIKQEPFSAR [C9S] the figure was 2.34; with VYYIFERLKAPLFRNIKQEPFSAR [C9K], 1.6. As for VYYIFERLHAPLFRNIKQEPFSAR [C9H], the protein stability index was 2.02. With VYYIFERLPAPLFRNIKQEPFSAR [C9P] the figure was 3.02; with VYYIFERLIAPLFRNIKQEPFSAR [C9I], 1.31. With VYYIFERLGAPLFRNIKQEPFSAR [C9G] the figure was 3.15; with VYYIFERLFAPLFRNIKQEPFSAR [C9F], 1.95. With VYYIFERLNAPLFRNIKQEPFSAR [C9N] the figure was 1.04. As for VYYIFERLCAPCFRNIKQEPFSAR [L12C], the protein stability index came out at 2.21. With VYYIFERLCAPHFRNIKQEPFSAR [L12H] the figure was 3.56; with VYYIFERLCAPFFRNIKQEPFSAR [L12F], 2.5.
